Measurements as given in patent US5993803A, “Method of reducing the severity of host vs graft reaction by down-regulating hsp60 autoimmunity” (Yeda Research and Development Co., Ltd., priority 1996, dated 1999).
“Also recorded” adds a separate entry of the source.

How the values were obtained:
[1] = tested on: BALB/c (H-2^d) skin allograft rejection in C57BL/6 (H-2^b) mice; type: in vivo, mouse; details: C57BL/6 recipients; 50 μg in incomplete Freund's adjuvant s.c. 2 weeks before transplantation; Wilcoxon test; FIG. 3A
Description: (§1) FIGS. 3A and 3B show the effects of treating C57BL6 (H-2^b) mice (FIG. 3A) or wild-type NOD (H-2^g7) mice (FIG. 3B) with hsp60 (50 μg in incomplete Freund's adjuvant; Sigma) administered subcutaneously in the back 2 weeks before transplantation of BALB/c (H-2^d) skin (Elias et al., 1994; Elias et al., 1995). […] Control mice were untreated (open squares) or treated with incomplete Freund's adjuvant containing 50 μg of recombinant glutathione transferase (open diamonds).

[2] = tested on: BALB/c (H-2^d) skin allograft rejection in wild-type NOD (H-2^g7) mice; type: in vivo, mouse; details: wild-type NOD recipients; 50 μg in incomplete Freund's adjuvant s.c. 2 weeks before transplantation; Wilcoxon test; FIG. 3B
Description: as §1
Wild-type NOD (H-2^g7) mice were treated with various hsp60 peptides in incomplete Freund's adjuvant. […] Control mice were untreated (open square) or were treated with incomplete Freund's adjuvant containing 50 μg of peptide p11, a control non-immunogenic hsp60 peptide (closed diamond). […] Each group contained 10-12 mice.
Patches of dorsal skin of one cm^2 were removed from anesthetized recipient mice treated with Nembutal 6 mg/ml, 0.25 ml per mouse and replaced by the donor skin grafts. Histoacryl (B. Braun Meleungen AG, D-34209 Melsungen, Germany) was applied around the grafts and Nobecutan (ASTR, Astra Tech, POB 13, Glos G15, UK) was sprayed over them.

[3] = tested on: spleen cells of treated NOD or C57BL mice stimulated with irradiated BALB/c spleen cells; test: Mixed lymphocyte reaction (MLR) of spleen cells from treated, grafted mice with irradiated BALB/c spleen cells; type: cell-based, mouse
From the text: T cells reactive to hsp60 and other hsp molecules have been isolated from cardiac allografts (Moliterno et al., 1995) as well as from other inflammatory lesions (Selmaj et al., 1991; Mor et al., 1992). […] It is theorized that the constitutive hyper-expression of hsp60 in the donor Eα-hsp60 skin amplifies the activation of anti-hsp60 autoimmune T cells at the site and enhance the local immune response by adding pro-inflammatory (TH1-type) cytokines, such as INFγ (Finkelman et al., 1990), to the allograft reaction, thereby inciting and abetting other T cells responsive to the foreign antigens. Conversely, hsp60 autoimmune T cells that have been activated to produce anti-inflammatory cytokines of the TH2-type, such as IL-10, should serve to shut down the effector immune reaction by a form of by-stander suppression (Weiner et al., 1994). To test whether treatment with hsp60 peptides might modify the cytokine response, NOD or C57BL mice were treated with hsp60 or with hsp60 peptide p12. Control mice were untreated or were treated with saline emulsified in IFA. The mice were grafted with BALB/c skin grafts and twenty days later, just at the beginning of graft rejection in the control mice, groups of 5-10 mice were sacrificed and their spleen cells assayed individually in a standard mixed lymphocyte reaction (MLR) with irradiated BALB/c spleen cells as stimulators (Lohse et al., 1990). […] However, the MLR media were also tested for the presence of the TH1 cytokine IFNγ and the TH2 cytokine IL-10.

B1: hsp60: Recombinant human 60 kDa heat shock protein, SEQ ID NO:1 (protein, UniProt P10809 27-573, looked up)
60 kDa heat shock protein, …: AKDVKFGADARALMLQGVDLLADAVAVTMGPKGRTVIIEQSWGSPKVTKDGVTVAKSIDLKDKYKNIGAKLVQDVANNTNEEAGDGTTTATVLARSIAKEGFEKISKGANPVEIRRGVMLAVDAVIAELKKQSKPVTTPEEIAQVATISANGDKEIGNIISDAMKKVGRKGVITVKDGKTLNDELEIIEGMKFDRGYISPYFINTSKGQKCEFQDAYVLLSEKKISSIQSIVPALEIANAHRKPLVIIAEDVDGEALSTLVLNRLKVGLQVVAVKAPGFGDNRKNQLKDMAIATGGAVFGEEGLTLNLEDVQPHDLGKVGEVIVTKDDAMLLKGKGDKAQIEKRIQEIIEQLDVTTSEYEKEKLNERLAKLSDGVAVLKVGGTSDVEVNEKKDRVTDALNATRAAVEEGIVLGGGCALLRCIPALDSLTPANEDQKIGIEIIKRTLKIPAMTIAKNAGVEGSLIVEKIMQSSSEVGYDAMAGDFVNMVEKGIIDPTKVVRTALLDAAGVASLLTTAEVVVTEIPKEEKDPGMGAMGGMGGGMGGGMF
- survival of BALB/c skin grafts (delay in skin allograft rejection) [1]: significantly prolonged survival; also recorded: significant
- survival of BALB/c skin grafts (delay in skin allograft rejection) [2]: delayed rejection; also recorded: significant
- T-cell proliferation by thymidine incorporation in MLR, treated vs control groups ([3]; spleen cells taken 20 days after BALB/c skin grafting, hsp60 and p12 treated mice reported together): no significant differences
- IL-10 produced in MLR media ([3]; spleen cells taken 20 days after grafting, hsp60 and p12 treated mice pooled, control mice 3.5±0.6, p=0.004): 8 ± 1.4 ng/mL
- IFNγ produced in MLR media ([3]; spleen cells taken 20 days after grafting, hsp60 and p12 treated mice pooled, control mice 9.25±1.7, p=0.002): 3.13 ± 1.4 ng/mL
